From the supplement of paper PMC9112550, “Optimization of the antimicrobial peptide Bac7 by deep mutational scanning” (BMC Biology, 2022)

system: Escherichia coli TOP10; assay: shrunken log2 fold change of peptide-encoding DNA abundance (4.5 h post-induction vs induction); higher = less antimicrobial activity (less host growth inhibition); conditions: time post-induction: 4.5 h; library: site-saturation at positions 5, 18, 19, 20
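Note: peptides expressed intracellularly from a pBAD plasmid library in pooled LB shake-flask culture, induced with 0.3% L-arabinose, DNA abundance read by NGS, three biological replicates, DESeq2 with apeglm shrinkage.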

Sequence | shrunken log2 fold change
RRIRKRPPRLPRPRPRPERSPRP | 0.245
RRIRRRPPRLPRPRPRPGGFPRP | 0.36
RRIRKRPPRLPRPRPRPLGRPRP | 1.35
RRIRCRPPRLPRPRPRPRLNPRP | 0.00503
RRIRRRPPRLPRPRPRPFYSPRP | -0.307
RRIRGRPPRLPRPRPRPPVPPRP | 0.82
RRIRCRPPRLPRPRPRPAYKPRP | -0.093
RRIRERPPRLPRPRPRPGVIPRP | -0.0985
RRIRIRPPRLPRPRPRPPTRPRP | 0.251
RRIRPRPPRLPRPRPRPISMPRP | -0.0272
RRIRCRPPRLPRPRPRPLIWPRP | -0.177
RRIRCRPPRLPRPRPRPVDFPRP | -0.252
RRIRNRPPRLPRPRPRPNDWPRP | 0.0943
RRIRNRPPRLPRPRPRPHLHPRP | -0.121
RRIRDRPPRLPRPRPRPQCYPRP | 0.0803
RRIRARPPRLPRPRPRPRPGPRP | 0.814
RRIRGRPPRLPRPRPRPHDIPRP | 0.0295
RRIRRRPPRLPRPRPRPWINPRP | -0.37
RRIRKRPPRLPRPRPRPMAFPRP | 0.25
RRIRTRPPRLPRPRPRPQVLPRP | -0.0479
RRIRKRPPRLPRPRPRPMSLPRP | 0.474
RRIRMRPPRLPRPRPRPLRTPRP | 3.45
RRIRNRPPRLPRPRPRPVQAPRP | -0.00783
RRIRMRPPRLPRPRPRPNVRPRP | 0.0272
RRIRTRPPRLPRPRPRPFRGPRP | -0.175

Sequence | shrunken log2 fold change
RRIRLRPPRLPRPRPRPKNLPRP | 0.0548
RRIRSRPPRLPRPRPRPYIFPRP | -0.683
RRIRSRPPRLPRPRPRPTCAPRP | 0.301
RRIRYRPPRLPRPRPRPAEAPRP | 0.0062
RRIRPRPPRLPRPRPRPAMGPRP | 0.332
RRIRHRPPRLPRPRPRPIMIPRP | -0.192
RRIRPRPPRLPRPRPRPNQTPRP | 0.106
RRIRQRPPRLPRPRPRPYRYPRP | -0.0123
RRIRARPPRLPRPRPRPFCEPRP | 0.303
RRIRFRPPRLPRPRPRPRNDPRP | -0.218
RRIRSRPPRLPRPRPRPWEKPRP | -0.01
RRIRERPPRLPRPRPRPIGHPRP | -0.244
RRIRLRPPRLPRPRPRPGVFPRP | -0.0879
RRIRKRPPRLPRPRPRPKITPRP | 0.0975
RRIRFRPPRLPRPRPRPWECPRP | -0.0123
RRIRIRPPRLPRPRPRPHTSPRP | -1.18
RRIRNRPPRLPRPRPRPPRIPRP | 0.325
RRIRRRPPRLPRPRPRPAKFPRP | 0.217
RRIRERPPRLPRPRPRPITIPRP | -0.0388
RRIRSRPPRLPRPRPRPMDSPRP | -0.279
RRIRKRPPRLPRPRPRPLPWPRP | 0.814
RRIRMRPPRLPRPRPRPLCVPRP | 0.361
RRIRPRPPRLPRPRPRPVWVPRP | 0.0215
RRIRHRPPRLPRPRPRPYIPPRP | -0.194
RRIRFRPPRLPRPRPRPWVPPRP | 0.0548

Sequence | shrunken log2 fold change
RRIRKRPPRLPRPRPRPSFNPRP | 0.0137
RRIRTRPPRLPRPRPRPFYSPRP | -0.701
RRIRCRPPRLPRPRPRPIRYPRP | -1.42
RRIRPRPPRLPRPRPRPPDMPRP | 0.507
RRIRCRPPRLPRPRPRPTNPPRP | -0.429
RRIRKRPPRLPRPRPRPSRAPRP | 0.521
RRIRNRPPRLPRPRPRPYLKPRP | -0.151
RRIRFRPPRLPRPRPRPYHCPRP | 0.0331
RRIRERPPRLPRPRPRPCAPPRP | -0.215
RRIRKRPPRLPRPRPRPMEPPRP | 0.0318
RRIRLRPPRLPRPRPRPMQCPRP | -0.0717
RRIRVRPPRLPRPRPRPAVHPRP | -0.021
RRIRYRPPRLPRPRPRPMACPRP | -0.000921
RRIRRRPPRLPRPRPRPDKRPRP | -0.0396
RRIRRRPPRLPRPRPRPCSIPRP | -0.0224
RRIRNRPPRLPRPRPRPDFCPRP | 0.0953
RRIRGRPPRLPRPRPRPPINPRP | 0.21
RRIRMRPPRLPRPRPRPTGIPRP | -0.149
RRIRTRPPRLPRPRPRPIVYPRP | -0.85
RRIRNRPPRLPRPRPRPEAHPRP | -0.0208
RRIRVRPPRLPRPRPRPHCAPRP | -0.179
RRIRIRPPRLPRPRPRPTAPPRP | 0.0608
RRIRWRPPRLPRPRPRPRAEPRP | 0.621
RRIRHRPPRLPRPRPRPSIPPRP | -0.868
RRIRNRPPRLPRPRPRPMTPPRP | 0.244

Sequence | shrunken log2 fold change
RRIRVRPPRLPRPRPRPTHAPRP | 0.285
RRIRHRPPRLPRPRPRPIRTPRP | -0.0747
RRIRFRPPRLPRPRPRPRSKPRP | 0.0303
RRIRKRPPRLPRPRPRPPHDPRP | 0.559
RRIRDRPPRLPRPRPRPLYPPRP | -0.277
RRIRRRPPRLPRPRPRPMAQPRP | 0.318
RRIRARPPRLPRPRPRPLMNPRP | -0.178
RRIRDRPPRLPRPRPRPMINPRP | 0.0491
RRIRARPPRLPRPRPRPWANPRP | 0.201
RRIRGRPPRLPRPRPRPLCHPRP | 0.775
RRIRFRPPRLPRPRPRPPPWPRP | 0.961
RRIRLRPPRLPRPRPRPHVHPRP | -0.0727
RRIRDRPPRLPRPRPRPGHNPRP | -0.0961
RRIRWRPPRLPRPRPRPWMDPRP | -0.0803
RRIRHRPPRLPRPRPRPQICPRP | 0.00386
RRIRKRPPRLPRPRPRPYREPRP | -0.0243
RRIRIRPPRLPRPRPRPRNKPRP | -0.0432
RRIRPRPPRLPRPRPRPCLQPRP | -0.631
RRIRYRPPRLPRPRPRPTVVPRP | -0.477
RRIRWRPPRLPRPRPRPYIWPRP | -0.477
RRIRWRPPRLPRPRPRPNVAPRP | 0.088
RRIRWRPPRLPRPRPRPVCNPRP | 0.0983
RRIRKRPPRLPRPRPRPNWNPRP | -0.191
RRIRKRPPRLPRPRPRPCWGPRP | 0.0634
RRIRGRPPRLPRPRPRPARYPRP | 0.339

Sequence | shrunken log2 fold change
RRIRLRPPRLPRPRPRPYGVPRP | -0.107
RRIRLRPPRLPRPRPRPMPSPRP | -0.0353
RRIRERPPRLPRPRPRPQANPRP | -0.0396
RRIRYRPPRLPRPRPRPGQVPRP | -0.0686
RRIRNRPPRLPRPRPRPQKMPRP | -0.134
RRIRERPPRLPRPRPRPWMTPRP | -0.108
RRIRARPPRLPRPRPRPPCLPRP | 0.224
RRIRLRPPRLPRPRPRPMGDPRP | 0.0227
RRIRHRPPRLPRPRPRPHGTPRP | -0.0524
RRIRHRPPRLPRPRPRPCIMPRP | -0.0341
RRIRHRPPRLPRPRPRPSLMPRP | 0.0202
RRIRLRPPRLPRPRPRPCETPRP | -0.155
RRIRTRPPRLPRPRPRPKTHPRP | 0.29
RRIRTRPPRLPRPRPRPKDEPRP | -0.0319
RRIRMRPPRLPRPRPRPISCPRP | -0.0229
RRIRERPPRLPRPRPRPDESPRP | -0.304
RRIRVRPPRLPRPRPRPITMPRP | -0.432
RRIRGRPPRLPRPRPRPARVPRP | 0.614
RRIRTRPPRLPRPRPRPPQRPRP | 0.577
RRIRCRPPRLPRPRPRPSDRPRP | -0.473
RRIRTRPPRLPRPRPRPYKHPRP | -0.518
RRIRIRPPRLPRPRPRPIRQPRP | 0.143
RRIRYRPPRLPRPRPRPPKYPRP | -0.97
RRIRMRPPRLPRPRPRPTEPPRP | 0.383
RRIRKRPPRLPRPRPRPARQPRP | 0.356

Sequence | shrunken log2 fold change
RRIRNRPPRLPRPRPRPQEAPRP | -0.0152
RRIRNRPPRLPRPRPRPKNYPRP | -0.752
RRIRYRPPRLPRPRPRPYVNPRP | -0.361
RRIRDRPPRLPRPRPRPHNAPRP | -0.0997
RRIRYRPPRLPRPRPRPTHHPRP | -0.509
RRIRRRPPRLPRPRPRPACRPRP | 0.456
RRIRIRPPRLPRPRPRPEDAPRP | -0.0131
RRIRYRPPRLPRPRPRPKNLPRP | -0.36
RRIRVRPPRLPRPRPRPMQQPRP | 0.108
RRIRPRPPRLPRPRPRPGYRPRP | -0.051
RRIRTRPPRLPRPRPRPESAPRP | 0.0458
RRIRNRPPRLPRPRPRPFPKPRP | 0.0299
RRIRSRPPRLPRPRPRPYGVPRP | 0.0325
RRIRDRPPRLPRPRPRPAIAPRP | 0.878
RRIRYRPPRLPRPRPRPDYQPRP | 0.0202
RRIRKRPPRLPRPRPRPFPCPRP | 0.0314
RRIRDRPPRLPRPRPRPKASPRP | 0.224
RRIRGRPPRLPRPRPRPKYFPRP | -0.251
RRIRFRPPRLPRPRPRPQADPRP | 0.0728
RRIRHRPPRLPRPRPRPERCPRP | -0.078
RRIRARPPRLPRPRPRPGANPRP | 0.589
RRIRQRPPRLPRPRPRPSMVPRP | -0.632
RRIRKRPPRLPRPRPRPWAFPRP | -0.016
RRIRTRPPRLPRPRPRPEFCPRP | 0.146
RRIRFRPPRLPRPRPRPLKMPRP | -0.428
